Assay results reported in patent publication US20190367578A1 (Novo Nordisk, published 2019).
*1 amine or outer side, *2 acyl side, *3 side chain or, on linkers, in order; H or OH if unused. Where no end group is shown, it is not given here. Side-chain parts run from the residue outwards. [ ]: non-standard residue; d: D form. The star is where a group is joined. C20 diacid = O=C(O)CCCCCCCCCCCCCCCCCCC(=O)*; C18 diacid = O=C(O)CCCCCCCCCCCCCCCCC(=O)*; γGlu = O=C(O)[C@H](CCC(=O)[*:2])N[*:1]; Nle = CCCC[C@H](N)C(=O)O; AEEA = NCCOCCOCC(=O)O; Aib = CC(C)(N)C(=O)O

How the values were obtained:
Experiment in all cases: cell-based or functional assay
[1] = biological target: T1, human GIP receptor (human) (UniProt P48546)
T1 sequence (looked up): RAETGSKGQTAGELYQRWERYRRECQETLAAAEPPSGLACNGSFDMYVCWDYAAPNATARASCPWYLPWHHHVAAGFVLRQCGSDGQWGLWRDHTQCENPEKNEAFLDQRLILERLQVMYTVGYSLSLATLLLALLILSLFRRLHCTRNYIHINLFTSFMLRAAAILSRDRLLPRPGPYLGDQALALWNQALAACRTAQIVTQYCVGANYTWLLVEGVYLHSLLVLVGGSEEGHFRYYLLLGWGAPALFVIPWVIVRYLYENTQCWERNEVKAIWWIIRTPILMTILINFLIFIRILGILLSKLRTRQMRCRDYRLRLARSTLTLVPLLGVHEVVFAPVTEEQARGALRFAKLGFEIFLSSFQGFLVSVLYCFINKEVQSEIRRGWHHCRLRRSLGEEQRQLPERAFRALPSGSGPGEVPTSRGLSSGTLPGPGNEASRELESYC

[2] = biological target: human GLP-1 receptor (human) (UniProt P43220)
[3] = biological target: human glucagon receptor (human) (UniProt P47871)
Sequence of human glucagon receptor (human) (P47871 26-477): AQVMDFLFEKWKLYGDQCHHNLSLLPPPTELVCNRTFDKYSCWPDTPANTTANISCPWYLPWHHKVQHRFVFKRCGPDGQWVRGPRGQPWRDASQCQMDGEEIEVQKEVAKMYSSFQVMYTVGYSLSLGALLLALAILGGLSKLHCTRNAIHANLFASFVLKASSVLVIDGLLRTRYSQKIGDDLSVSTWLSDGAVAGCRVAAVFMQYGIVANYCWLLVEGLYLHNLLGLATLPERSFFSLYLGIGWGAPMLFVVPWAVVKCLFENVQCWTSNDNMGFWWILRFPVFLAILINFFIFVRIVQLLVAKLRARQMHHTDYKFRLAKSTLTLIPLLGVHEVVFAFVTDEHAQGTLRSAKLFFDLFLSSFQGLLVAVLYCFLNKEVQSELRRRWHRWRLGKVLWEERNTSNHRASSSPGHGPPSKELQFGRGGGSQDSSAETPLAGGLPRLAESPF

Sequence of human GLP-1 receptor (human) (P43220 24-463): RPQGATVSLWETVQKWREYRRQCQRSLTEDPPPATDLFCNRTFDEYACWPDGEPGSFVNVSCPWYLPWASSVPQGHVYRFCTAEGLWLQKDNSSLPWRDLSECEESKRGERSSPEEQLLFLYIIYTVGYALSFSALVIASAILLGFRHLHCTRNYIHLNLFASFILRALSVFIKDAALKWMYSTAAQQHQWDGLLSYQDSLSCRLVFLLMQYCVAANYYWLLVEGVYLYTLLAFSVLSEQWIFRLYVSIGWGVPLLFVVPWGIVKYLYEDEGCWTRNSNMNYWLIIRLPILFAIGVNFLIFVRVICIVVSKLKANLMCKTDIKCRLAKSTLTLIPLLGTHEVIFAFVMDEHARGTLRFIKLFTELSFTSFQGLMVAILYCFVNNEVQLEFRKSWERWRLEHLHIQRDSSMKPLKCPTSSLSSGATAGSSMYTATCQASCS

EC50 (pM), hGIP-R CRE Luc, 0.2% HSA [1] [pM]	further results	Molecule
20.9		N{1}-acetyl, N{Epsilon-24}-[(4S)-4-carboxy-4-[[(4S)-4-carboxy-4-[[(4S)-4-carboxy-4-(17-carboxyheptadecanoylamino)butanoyl]amino]butanoyl]amino]butanoyl]-[D-Tyr1,Aib2,Nle14,Arg18,Lys24]-hGIP(1-31) (peptide)
72.1		N{Epsilon-24}-[(4S)-4-carboxy-4-[[(4S)-4-carboxy-4-[[(4S)-4-carboxy-4-[[4-[(19-carboxynonadecanoylamino)methyl]cyclohexanecarbonyl]amino]butanoyl]amino]butanoyl]amino]butanoyl]-[Aib2,Nle14,Arg18,Lys24]-hGIP(1-31) (peptide)
61.5		N{Epsilon-24}-[(4S)-4-carboxy-4-[[(4S)-4-carboxy-4-[[(4S)-4-carboxy-4-[[4-[(19-carboxynonadecanoylamino)methyl]cyclohexanecarbonyl]amino]butanoyl]amino]butanoyl]amino]butanoyl]-[Aib2,Nle14,Arg18,Lys24,Pro31]-hGIP(1-31) amide (peptide)
135		N{1}-acetyl,N{Epsilon-24}-[(4S)-4-carboxy-4-[[(4S)-4-carboxy-4-[[(4S)-4-carboxy-4-[[4-[(19-carboxynonadecanoylamino)methyl]cyclohexanecarbonyl]amino]butanoyl]amino]butanoyl]amino]butanoyl]-[D-Tyr1,Aib2,Nle14,Arg18,Lys24]-hGIP(1-31) (peptide)
44.7		N{Epsilon-24}-[2-[2-[2-[[2-[2-[2-[[(4S)-4-carboxy-4-[[4-[(19-carboxynonadecanoylamino)methyl]cyclohexanecarbonyl]amino]butanoyl]amino]ethoxy]ethoxy]acetyl]amino]ethoxy]ethoxy]acetyl]-[Aib2,Nle14,Arg18,Lys24]-hGIP(1-31) (peptide)
21.2	EC50 (pM), hGLP-1-R CRE Luc, 0.2% HSA [2]: > 100000 pM	N{1}-acetyl,N{Epsilon-24}-[(4S)-4-carboxy-4-[[(4S)-4-carboxy-4-[[(4S)-4-carboxy-4-(17-carboxyheptadecanoylamino)butanoyl]amino]butanoyl]amino]butanoyl]-[D-Tyr1,Aib2,Nle14,Arg18,Lys24,Pro31]-hGIP(1-31) amide (peptide)
26.1	EC50 (pM), hGcg-R CRE Luc, 1% HSA (footnote *) [3]: > 100000 pM	N{1}-acetyl,N{Epsilon-24}-[(4S)-4-carboxy-4-[[(4S)-4-carboxy-4-[[(4S)-4-carboxy-4-[[(4S)-4-carboxy-4-[[4-[(19-carboxynonadecanoylamino)methyl]cyclohexanecarbonyl]amino]butanoyl]amino]butanoyl]amino]butanoyl]amino]butanoyl]-[D-Tyr1,Aib2,Nle14,Arg18,Lys24,Pro31]-hGIP(1-31) amide (peptide)
22		Y[Aib]EGTFISDYSIA[Nle]DKIRQQDFVK([γGlu-γGlu-γGlu-4‑(aminomethyl)cyclohexanecarbonyl-C20 diacid])WLLAQKGKEEDWKHNITQ
71.2		Ac-[dY]AEGTFISDYSIA[Nle]DKIHQQDFVK([γGlu-γGlu-γGlu-4‑(aminomethyl)cyclohexanecarbonyl-C20 diacid])WLLAQKP-NH2
30.4		Ac-[dY]AEGTFISDYSIA[Nle]DKIRQQDFVK([AEEA-AEEA-γGlu-C18 diacid])WLLAQKG
547		Ac-[dY]AEGTFISDYSIA[Nle]DKIHQEDFVK([γGlu-γGlu-γGlu-4‑(aminomethyl)cyclohexanecarbonyl-C20 diacid])WLLAQKG
153		Ac-[dY]AEGTFISDYSIA[Nle]DKIHQ[Aib]DFVK([γGlu-γGlu-γGlu-4‑(aminomethyl)cyclohexanecarbonyl-C20 diacid])WLLAQKG
62.9		Y[Aib]EGTFISDYSIA[Nle]DKIRQEDFVK([γGlu-γGlu-γGlu-C18 diacid])WLLAQKG
91.5		Ac-[dY]AEGTFISDYSIADDKIRQEDFVK([AEEA-AEEA-γGlu-C18 diacid])WLLAQKG
38.4		Ac-[dY][Aib]EGTFISDYSIA[Nle]DKIHQQDFVK([γGlu-γGlu-γGlu-4‑(aminomethyl)cyclohexanecarbonyl-C20 diacid])WLLAQKP-NH2
43.1		Ac-[dY]AEGTFISDYSIA[Nle]DKIRQQDFVK([AEEA-AEEA-γGlu-γGlu-γGlu-C18 diacid])WLLAQKG

EC50 (pM), hGIP-R CRE Luc, 0.2% HSA [1] [pM]	further results	Molecule
266		Y[Aib]EGTFISDYSIA[Nle]DAIRQQDFVK([γGlu-γGlu-γGlu-4‑(aminomethyl)cyclohexanecarbonyl-C20 diacid])WLLAQKG
71.2		Y[Aib]EGTFISDYSIA[Nle]DKIRQ[Aib]DFVK([γGlu-γGlu-γGlu-4‑(aminomethyl)cyclohexanecarbonyl-C20 diacid])WLLAQKG
48.9		Ac-[dY]AEGTFISDYSIA[Nle]DKIRQQDFVK([γGlu-γGlu-γGlu-C18 diacid])WLLAQKG
21.3	EC50 (pM), hGLP-1-R CRE Luc, 1% HSA (footnote *) [2]: > 100000 pM; EC50 (pM), hGcg-R CRE Luc, 1% HSA (footnote *) [3]: > 100000 pM	Y[Aib]EGTFISDYSIA[Nle]DKIHQQDFVK([γGlu-γGlu-γGlu-C18 diacid])WLLAQKGKENDWKHNITQ
158		Y[Aib]EGTFISDYSIA[Nle]DKIHQEDFVK([γGlu-γGlu-γGlu-γGlu-C18 diacid])WLLAQKG
72.5		Y[Aib]EGTFISDYSIA[Nle]DAIRQQDFVK([γGlu-γGlu-γGlu-C18 diacid])WLLAQKG
546		Ac-YAEGTFISDYSIA[Nle]DKIRQQDFVK([γGlu-γGlu-γGlu-C18 diacid])WLLAQKG
810		Y[Aib]EGTFISDYSIA[Nle]DKIHQEDFVK([γGlu-γGlu-γGlu-γGlu-4‑(aminomethyl)cyclohexanecarbonyl-C20 diacid])WLLAQKG
252		Y[Aib]EGTFISDYSIA[Nle]DKIRQEDFVK([γGlu-γGlu-γGlu-4‑(aminomethyl)cyclohexanecarbonyl-C20 diacid])WLLAQKG
14		Y[Aib]EGTFISDYSIA[Nle]DKIRQQDFVK([AEEA-AEEA-γGlu-4‑(aminomethyl)cyclohexanecarbonyl-C20 diacid])WLLAQKGKEEDWKHNITQ
25		Ac-[dY]AEGTFISDYSIA[Nle]DKIRQEDFVK([AEEA-AEEA-γGlu-C18 diacid])WLLAQKG
49.9	EC50 (pM), hGLP-1-R CRE Luc, 1% HSA (footnote *) [2]: > 100000 pM; EC50 (pM), hGcg-R CRE Luc, 1% HSA (footnote *) [3]: > 100000 pM	Y[Aib]EGTFISDYSIA[Nle]DKIHQQDFVK([γGlu-γGlu-γGlu-C18 diacid])WLLAQKG
180		Ac-[dY]AEGTFISDYSIA[Nle]DKIRQQDFVK([γGlu-γGlu-γGlu-4‑(aminomethyl)cyclohexanecarbonyl-C20 diacid])WLLAQKG
9.4		Y[Aib]EGTFISDYSIA[Nle]DKIRQ[Aib]DFVK([γGlu-γGlu-γGlu-C18 diacid])WLLAQKG
67.5		Y[Aib]EGTFISDYSIA[Nle]DKIHQQDFVK([γGlu-γGlu-γGlu-4‑(aminomethyl)cyclohexanecarbonyl-C20 diacid])WLLAQKP-NH2
76.2		Ac-[dY]AEGTFISDYSIA[Nle]DKIRQQDFVK([γGlu-γGlu-γGlu-4‑(aminomethyl)cyclohexanecarbonyl-C20 diacid])WLLAQKP-NH2
